Reference: publication PMC11437284
Blank lines part the entries; values can stand above or below the molecule they belong to.

What was measured:
Experiment in all cases: SPR
[1] = molecular target: D1 domain of FcμR (FcμR-D1) (human) (UniProt O60667)
[2] = molecular target: cat Fcμ–J complex (cat)
[3] = molecular target: human Fcμ–J–CD5L complex (human) (UniProt P01871)
[4] = molecular target: human Fcμ–J complex (pentameric IgM core: IgM-Fc pentamer and the J chain) (human) (UniProt P01871)

- Kd [1]: 0.4 nM
Molecule: human Fcμ–J–CD5L complex (from UniProt P01871 106-433; P01591 23-159; O43866 20-347)

- Kd [2]: 14.4 nM
Molecule: cat CD5L (3-SRCR isoform) (from UniProt A0A1E1GEY0 20-355) (natural protein)

- Kd [3]: 8.8 nM
B1: D1 domain of FcμR (FcμR-D1) (domain or fragment)
chain: RILPEVKVEGELGGSVTIKCPLPEMHVRIYLCREMAGSGTCGTVVSTTNFIKAEYKGRVTLKQYPRKNLFLVEVTQLTESDSGVYACGAGMNTDRGKTQKVTLNVHS

- Kd [4]: 18.1 nM
B2: human CD5L (CD5 antigen-like), wild type (natural protein)
chain: SPSGVRLVGGLHRCEGRVEVEQKGQWGTVCDDGWDIKDVAVLCRELGCGAASGTPSGILYEPPAEKEQKVLIQSVSCTGTEDTLAQCEQEEVYDCSHDEDAGASCENPESSFSPVPEGVRLADGPGHCKGRVEVKHQNQWYTVCQTGWSLRAAKVVCRQLGCGRAVLTQKRCNKHAYGRKPIWLSQMSCSGREATLQDCPSGPWGKNTCNHDEDTWVECEDPFDLRLVGGDNLCSGRLEVLHKGVWGSVCDDNWGEKEDQVVCKQLGCGKSLSPSFRDRKCYGPGVGRIWLDNVRCSGEEQSLEQCQHRFWGFHDCTHQEDVAVICSG

- Kd [4]: 13.2 nM
B3: human CD5L C191S (natural protein)
chain: SPSGVRLVGGLHRCEGRVEVEQKGQWGTVCDDGWDIKDVAVLCRELGCGAASGTPSGILYEPPAEKEQKVLIQSVSCTGTEDTLAQCEQEEVYDCSHDEDAGASCENPESSFSPVPEGVRLADGPGHCKGRVEVKHQNQWYTVCQTGWSLRAAKVVCRQLGCGRAVLTQKRSNKHAYGRKPIWLSQMSCSGREATLQDCPSGPWGKNTCNHDEDTWVECEDPFDLRLVGGDNLCSGRLEVLHKGVWGSVCDDNWGEKEDQVVCKQLGCGKSLSPSFRDRKCYGPGVGRIWLDNVRCSGEEQSLEQCQHRFWGFHDCTHQEDVAVICSG
